Consider two molecules from paper PMC3285688, “Active Site Mutations Change the Cleavage Specificity of Neprilysin” (PLoS ONE, 2012).

Numbering of substitutions follows the chain as printed. Names and notes keep the numbering of the source.

Holding throughout (format): biochemical
Series [1] deals with leu-ENK and insulin B chain. The experiment in a line: Dual substrate assay: substrate preference leu-ENK versus insulin B chain. The following applies: for Substrate preference leu-ENK/insulin B chain (in words): dual substrate assay, versus wild-type; for Ratio leu-ENK insulin B chain: ratio of rates, 15 µM insulin B chain and 64 µM leu-ENK together. On the procedure:
(§1) The rate of cleavage of a substrate mixture is determined by both the kcat for that substrate as well by the affinity for the substrate. […] This is expected, given that each peptide acts as a competitive inhibitor of the other. […] That is the ratio for leu-ENK/insulin B chain cleavage is 3 for NEP^S546E compared to 6 for wild-type NEP.
(§2) Cleavage of physiological peptides was measured via reverse phase high performance liquid chromatography (HPLC) following incubation of the purified NEP or its mutants with 15 µM insulin B chain (Sigma Aldrich), 24 µM Aß1–40 (Anaspec), or 64 µM leu-ENK (Sigma) in 100 µL of 20 mM MES, pH 6.5, at 37°C. Reactions were run in triplicate. HPLC was carried out in a Vydac C4 column using a linear gradient from 0.1% trifluoroacetic acid (TFA) in 95% water, 5% acetonitrile to 0.1% TFA in 50% acetonitrile/water at a flow rate of 1 mL/min. Peptides and hydrolysis products were detected at 214 nm and quantified by measuring peak areas. Peptides obtained from HPLC were analyzed on an Applied Biosystems 4800 MALDI TOF/TOF Proteomics Analyzer at the University of Kentucky Proteomics core. This facility is supported in part by grant P20RR020171 from the NIH/NCRR.

Series [2] concerns leu-ENK. The series can be described thus: Rate of leu-ENK hydrolysis (HPLC). As to conditions: for Rate of hydrolysis of leu-ENK: 37°C, 20 mM MES buffer, pH 6.5, disappearance of substrate by HPLC, at least triplicate. How it is done: as §2
(§3) Statistical analysis comparing wild-type NEP and its mutants was performed with Prism 4 software using a two-tailed paired t-test with a 95% confidence interval.

Series [3] concerns insulin B chain. The series can be described thus: Dual substrate assay: insulin B chain hydrolysis in presence of leu-ENK. As to conditions: 15 µM insulin B chain and 64 µM leu-ENK together, 37°C, 20 mM MES buffer, pH 6.5; for Insulin B Chain hydrolysis, activity relative to the uninhibited value: numbers in parenthesis. On the procedure: as §1, §2
The test system of a further series is Aß1–40. The series can be described thus: Rate of Aß1–40 hydrolysis (HPLC). The following applies: 24 µM Aß1–40, 37°C, 20 mM MES buffer, pH 6.5; disappearance of substrate by HPLC; at least triplicate. How it is done: as §2, §3
Series [4] has as its system leu-ENK. The series can be described thus: Dual substrate assay: leu-ENK hydrolysis in presence of insulin B chain. As to conditions: 15 µM insulin B chain and 64 µM leu-ENK together, 37°C, 20 mM MES buffer, pH 6.5; for leu-ENK hydrolysis, activity relative to the uninhibited value: numbers in parenthesis. How it is done: as §1, §2
The nature of series [5]: Hydrolysis of synthetic substrate Glut-Ala-Ala-Phe-MNA by NEP and mutants (fluorogenic). As to conditions: for Specific Activity (Glut-Ala-Ala-Phe-MNA cleavage): 100 µM Glut-Ala-Ala-Phe-MNA, fluorescence ex 340 nm, em 425 nm; for Specific Activity (Glut-Ala-Ala-Phe-MNA cleavage) / Km: 37°C, 20 mM MES buffer, pH 6.5; for Km: Glut-Ala-Ala-Phe-MNA 20 to 500 µM, Michaelis-Menten fit. On the procedure: Reactions of 400 µl contained 100 µM Glut-Ala-Ala-Phe-MNA, 1 µg of aminopeptidase and 15 to 100 ng of NEP or mutant NEP depending on their activity in 20 mM MES buffer, pH 6.5. Activity was monitored with a Spectra Max Gemini XS plate reader using an excitation wavelength of 340 nm and an emission wavelength of 425 nm.
(§4) Kinetic constants for NEP and its mutants were obtained using the assay conditions noted above, but with Glut-Ala-Ala-Phe-MNA varied from 20 to 500 µM. Typically 12 data points were obtained. The data were fit to the Michaelis-Menten equation using Prism4 software. The Ki for insulin B chain was obtained by measuring the rate of Glut-Ala-Ala-Phe-MNA hydrolysis in the presence of varying concentrations of insulin B chain from 1 to 40 µM. Data were fit to a Dixon plot (1/rate versus [insulin B chain]) using Prism4 software and the ID50 obtained as the –x intercept, where ID50 corresponds to the concentration of insulin producing 50% inhibition. The actual Ki was obtained from the equation: ID50 = Ki (1+ [Glut-Ala-Ala-Phe-MNA]/KmGlut-Ala-Ala-Phe-MNA), [33].

The subject of series [6] is insulin B chain. The experiment in a line: Rate of insulin B chain hydrolysis (HPLC). As to conditions: 15 µM insulin B chain, 37°C, 20 mM MES buffer, pH 6.5; disappearance of substrate by HPLC; at least triplicate. On the procedure:
as §2, §3

Series [7] has as its target insulin B chain. The series can be described thus: Insulin B chain as alternate substrate (competitive) inhibitor of Glut-Ala-Ala-Phe-MNA hydrolysis (Dixon plot). The following applies: insulin B chain 1 to 40 µM as competitive inhibitor of Glut-Ala-Ala-Phe-MNA hydrolysis by the enzyme form, 37°C, 20 mM MES, pH 6.5, ID50 converted to Ki. On the procedure: as §4

B1: NEP^F563V: neprilysin active site mutant, Phe563 to valine (protein, UniProt P08473 2-750, looked up, variant F563V)
Neprilysin: GKSESQMDITDINTPKPKKKQRWTPLEISLSVLVLLLTIIAVTMIALYATYDDGICKSSDCIKSAARLIQNMDATTEPCTDFFKYACGGWLKRNVIPETSSRYGNFDILRDELEVVLKDVLQEPKTEDIVAVQKAKALYRSCINESAIDSRGGEPLLKLLPDIYGWPVATENWEQKYGASWTAEKAIAQLNSKYGKKVLINLFVGTDDKNSVNHVIHIDQPRLGLPSRDYYECTGIYKEACTAYVDFMISVARLIRQEERLPIDENQLALEMNKVMELEKEIANATAKPEDRNDPMLLYNKMTLAQIQNNFSLEINGKPFSWLNFTNEIMSTVNISITNEEDVVVYAPEYLTKLKPILTKYSARDLQNLMSWRFIMDLVSSLSRTYKESRNAFRKALYGTTSETATWRRCANYVNGNMENAVGRLYVEAAFAGESKHVVEDLIAQIREVFIQTLDDLTWMDAETKKRAEEKALAIKERIGYPDDIVSNDNKLNNEYLELNYKEDEYFENIIQNLKFSQSKQLKKLREKVDKDEWISGAAVVNAFYSSGRNQIVFPAGILQPPVFSAQQSNSLNYGGIGMVIGHEITHGFDDNGRNFNKDGDLVDWWTQQSASNFKEQSQCMVYQYGNFSWDLAGGQHLNGINTLGENIADNGGLGQAYRAYQNYIKKNGEEKLLPGLDLNHKQLFFLNFAQVWCGTYRPEYAVNSIKTDVHSPGNFRIIGTLQNSAEFSEAFHCRKNSYMNPEKKCRVW
Consider B1, for which, in series [1], the “Substrate preference leu-ENK/insulin B chain (in words)” value is on record as “no change in overall substrate preference” and the “Ratio leu-ENK insulin B chain” value is reported as 5.8. Besides, in the series with leu-ENK [2] (64 µM leu-ENK), the “leu-ENK cleavage rate as fraction of wild-type rate” value is 1/6 and the “Rate of hydrolysis of leu-ENK” value came to 0.31 ± 0.02 pmol/min/ng. Moreover, the “leu-ENK cleavage rate relative to wild-type NEP rate” value with leu-ENK [2] (64 µM leu-ENK, pH 6.5, 37°C) is “less than 20%”. The “Increase in preference for leu-ENK (over Aß1–40)” value with leu-ENK [2] (relative to NEP, from separate single-substrate rates) is “two fold”. In the series with insulin B chain [3], the “Insulin B Chain hydrolysis rate, dual substrate assay” value stood at 0.04 ± 0.01 pmol/min/ng and the “Insulin B Chain hydrolysis, activity relative to the uninhibited value” amounted to 0.67. Moreover, in the series with Aß1–40, the “Rate of hydrolysis of Aß1–40” value turned out to be 14 ± 1 fmol/min/ng. Further, in the series on leu-ENK [4], the “leu-ENK hydrolysis rate, dual substrate assay” value was 0.23 ± 0.03 pmol/min/ng and the “leu-ENK hydrolysis, activity relative to the uninhibited value” stood at 0.74. In addition, in series [5], the “Specific Activity (Glut-Ala-Ala-Phe-MNA cleavage)” value is 11.2 ± 0.3 pmol/min/ng and the Km (as a rule, the substrate concentration at which the rate is half of its maximum) is 51 ± 10 µM. The “Activity relative to wild-type enzyme (Glut-Ala-Ala-Phe-MNA)” value in series [5] (pH 6.5, 37°C) is around 25%. For the same molecule, the “Rate of hydrolysis of Insulin B Chain” value in the series with insulin B chain [6] was 0.06 ± 0.02 pmol/min/ng. Moreover, at insulin B chain [7], the inhibition constant (Ki) – broadly, the dissociation constant of the complex between target and ligand, obtained from inhibition or displacement – worked out at 1 ± 0.1 µM.

B2: NEP^F563M: neprilysin active site mutant, Phe563 to methionine (protein, UniProt P08473 2-750, looked up, variant F563M)
Neprilysin: B1 Neprilysin with V563M
Turning to B2, in series [1], the “Substrate preference leu-ENK/insulin B chain (in words)” value is “no change in overall substrate preference” and the “Ratio leu-ENK insulin B chain” value worked out at 6.3. Besides, the “Rate of hydrolysis of leu-ENK” value in the series with leu-ENK [2] (64 µM leu-ENK) stood at 1.21 ± 0.22 pmol/min/ng. In the series with insulin B chain [3], the “Insulin B Chain hydrolysis rate, dual substrate assay” value stood at 0.11 ± 0.02 pmol/min/ng and the “Insulin B Chain hydrolysis, activity relative to the uninhibited value” came out at 0.52. Besides, the “Rate of hydrolysis of Aß1–40” value in the series on Aß1–40 is 85 ± 3 fmol/min/ng. Besides, in the series with leu-ENK [4], the “leu-ENK hydrolysis rate, dual substrate assay” value was found to be 0.69 ± 0.11 pmol/min/ng and the “leu-ENK hydrolysis, activity relative to the uninhibited value” is given as 0.57. In series [5], the “Specific Activity (Glut-Ala-Ala-Phe-MNA cleavage)” value is 19.2 ± 0.4 pmol/min/ng and the Km was 87 ± 8 µM. Besides, in the series on insulin B chain [6], the “Rate of hydrolysis of Insulin B Chain” value was 0.21 ± 0.01 pmol/min/ng. The same molecule yielded a Ki at insulin B chain [7] of 1.2 ± 0.1 µM.
